Test results taken from patent publication US20250123292.

Target: recombinant human endorepellin/perlecan (R&Dsystems, catalog Number: 2364-ER-050), intact, P98160

B1: Recombinant Human BMP-1/PCP (R&Dsystems, catalog Number: 1927-ZN) (protein)
chain: AATSRPERVWPDGVIPFVIGGNFTGSQRAVFRQAMRHWEKHTCVTFLERTDEDSYIVFTYRPCGCCSYVGRRGGGPQAISIGKNCDKFGIVVHELGHVVGFWHEHTRPDRDRHVSIVRENIQPGQEYNFLKMEPQEVESLGETYDFDSIMHYARNTFSRGIFLDTIVPKYEVNGVKPPIGQRTRLSKGDIAQARKLYKCPACGETLQDSTGNFSSPEYPNGYSAHMHCVWRISVTPGEKIILNFTSLDLYRSRLCWYDYVEVRDGFWRKAPLRGRFCGSKLPEPIVSTDSRLWVEFRSSSNWVGKGFFAVYEAICGGDVKKDYGHIQSPNYPDDYRPSKVCIWRIQVSEGFHVGLTFQSFEIERHDSCAYDYLEVRDGHSESSTLIGRYCGYEKPDDIKSTSSRLWLKFVSDGSINKAGFAVNFFKEVDECSRPNRGGCEQRCLNTLGSYKCSCDPGYELAPDKRRCEAACGGFLTKLNGSITSPGWPKEYPPNKNCIWQLVAPTQYRISLQFDFFETEGNDVCKYDFVEVRSGLTADSKLHGKFCGSEKPEVITSQYNNMRVEFKSDNTVSKKGFKAHFFSEKRPALQPPRGRPHQLKFRVQKRNRTPQ
- measured levels of LG3 (LG3 ELISA) after in vitro cleavage, 24 hours at 37 C: LG3 was detected only in the endorepellin with BMP-1 sample
